According to patent US20070065447A1 (Novo Nordisk, published 2007):
Bridge positions count the residues as written; N and C are the ends. Ends that are not written are not given here.

T1: cyclic peptide X252 (Ln-5 residues 394-415 + R) (human, Cys-Cys disulfide bond (cyclic peptide))
T1 construct: Used unpurified
T1 peptide: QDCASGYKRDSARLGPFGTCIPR

T2: GST-γ2III-7 (a.a. residues 461-653) (human, UniProt Q13753 461-653)
T2 construct: Recombinant GST-γ2III-chain fragment; not shown: glutathione S-transferase (GST) fusion partner
T2 sequence: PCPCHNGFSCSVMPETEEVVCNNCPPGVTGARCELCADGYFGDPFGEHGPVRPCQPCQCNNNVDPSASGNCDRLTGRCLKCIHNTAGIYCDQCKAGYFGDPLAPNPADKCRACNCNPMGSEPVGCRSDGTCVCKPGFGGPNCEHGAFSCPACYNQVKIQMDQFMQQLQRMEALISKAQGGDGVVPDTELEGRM

T3: cyclic peptide X254 (Ln-5 residues 494-516, +E) (human, Cys-Cys disulfide bond (cyclic peptide))
T3 peptide: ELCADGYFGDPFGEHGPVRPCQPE

T4: cyclic peptide X253 (Ln-5 residues 425-444) (human, Cys-Cys disulfide bond (cyclic peptide))
T4 construct: Used unpurified
T4 peptide: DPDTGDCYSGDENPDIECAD

T5: cyclic peptide X256 (Ln-5 residues 539-552 + R) (human, disulfide 3-12 (inferred))
T5 peptide: LKCIHNTAGIYCDQR

T6: cyclic peptide X255 (R+, Ln-5 residues 518-537) (human, Cys-Cys disulfide bond (cyclic peptide))
T6 peptide: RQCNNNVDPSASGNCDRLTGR

T7: GST-γ2III-20 (a.a. residues 461-534) (human, UniProt Q13753 461-534)
T7 construct: Recombinant GST-γ2III-chain fragment, used in the second set of experiments only; also called GST-γIII-20; not shown: glutathione S-transferase (GST) fusion partner
T7 sequence: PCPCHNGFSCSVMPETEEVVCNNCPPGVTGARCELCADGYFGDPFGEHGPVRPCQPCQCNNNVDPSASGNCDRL


Assays:
BSA = molecular target: T8, BSA (bovine, UniProt P02769); test: direct ELISA, fusion proteins coated at 100 ng/well, A405 (Example 3, second experiment)
T8 construct: also called bovine serum albumin
T8 sequence (P02769 25-607 limits assumed): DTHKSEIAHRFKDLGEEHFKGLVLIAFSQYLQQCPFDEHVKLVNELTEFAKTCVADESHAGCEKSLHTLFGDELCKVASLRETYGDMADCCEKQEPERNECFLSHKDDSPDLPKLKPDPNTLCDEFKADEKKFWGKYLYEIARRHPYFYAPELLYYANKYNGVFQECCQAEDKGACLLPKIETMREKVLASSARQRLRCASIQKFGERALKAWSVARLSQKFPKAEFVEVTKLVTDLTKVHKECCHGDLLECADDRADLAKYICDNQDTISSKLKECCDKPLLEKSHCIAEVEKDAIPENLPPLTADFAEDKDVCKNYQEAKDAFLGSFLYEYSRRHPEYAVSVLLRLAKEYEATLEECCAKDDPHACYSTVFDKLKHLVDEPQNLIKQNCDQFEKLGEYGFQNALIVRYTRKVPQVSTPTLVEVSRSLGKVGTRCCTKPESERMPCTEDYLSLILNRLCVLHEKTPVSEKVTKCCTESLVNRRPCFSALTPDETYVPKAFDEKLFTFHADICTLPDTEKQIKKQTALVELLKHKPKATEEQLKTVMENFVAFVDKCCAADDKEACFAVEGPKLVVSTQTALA
Method: (§1) The stepwise protocol set forth below was used for the ELISAs, which were performed with biotinylated mAb 4G1, mAb 5D5, and mAb 6C12 (GST, BSA, and plastic used as controls in the first experiment; GST and BSA only in the second experiment) and the γ2 DIII antigens individually (GST-γIII-20 was only tested in the second experiment; nonspecific biotinylated Ig was used as a control for the antibodies in both experiments). All incubations were performed at room temperature except step 1, below. 100 μl of reagents were used per well for incubations and 200 μl of PBST for washings unless otherwise mentioned. In addition, shaking the plate can be helpful for incubations.
(§2) ELISA plates were coated with 100 μl GST-γ2III chain fragments at concentration of 1 μg/ml in 0.1 M carbonate/bicarbonate buffer, pH 9, o/n at +4° C. (100 ng/well). The coated plates were washed three times with PBST. Non-specific binding was blocked with BSA-PBS incubation for 90 minutes (200 μl/well). Dilutions of reference standards, negative controls (quality controls), and sample were diluted in BSA-PBS and thereafter incubated for 1 h at room temperature. The plates were again washed three times with PBST. HRP-conjugated anti-mouse IgG secondary antibody was added to the wells (diluted 1:5000 in PBS) and allowed to incubate for 30 minutes. The plates were washed again three times with PBST. ABTS-peroxidase substrate was added. Substrates were prepared immediately before use: ABTS-stock (10×) was diluted with Citrate buffer (see Example 1); 2 μl of 30% hydrogen […] was added to each well and mixed. Substrate was added to the wells and incubated in dark conditions for 30 minutes. Absorbance was read with a microtitre plate reader at 405 nm after 30 min and after 60 min.

[1] = molecular target: T1, cyclic peptide X252 (Ln-5 residues …); test: direct ELISA, peptide coated at 50 µg/ml (controls 5 µg/ml), antibody 100 ng/well, A450/620, mean of three ± SD
Method: The identity of these peptides was verified by mass spectrometry. Solutions containing the five peptides, in an unpurified state, were individually subjected to direct ELISA analysis using standard techniques. Briefly, NUNC-IMMUNO plates were coated with 100 μl/well of 50 μg/ml peptide in carbonate buffer and allowed to sit overnight at +4° C. […] The plates were washed five times with PBS to remove unbound peptide and subjected to one hour blocking at room temperature by exposure with a washing/blocking buffer (0.05% Tween-20 in PBS (PBST)), which was thereafter removed. 100 ng of antibody (100 μl of solution containing an antibody solution at a concentration of 1 μg antibody/ml) for each of the three mAbs (4G1, 5D5, and 6C12) was added to the test wells. Dilution buffer was added to the control wells. […]
100 μl HRP-anti-mouse secondary Ab diluted in a dilution buffer at a ratio of 1:2000 was added to each well and the plates were incubated for one hour at room temperature, and thereafter washed 4 times with PBST. The plates were then developed with 100 μl TMB substrate for a period of 15-30 minutes in the dark (during which time the plates were monitored for color development). […] Absorbance measurements were taken at 450 nm and 620 nm, ratios of absorbance determined, and the data evaluated. […]

[2] = molecular target: T9, GST-γ2III fusion protein (glutathione S-transferase:γ2 DIII fragment fusion protein, human laminin γ2 amino … (human)); test: SPR (BIAcore, RAMFc chip, HBS-EP buffer), mAb against GST-γ2DIII fusion protein
T9 construct: also called GST-γ2DIII; GST-γ2 DIII
T9 sequence (chain, as listed by the source limits assumed): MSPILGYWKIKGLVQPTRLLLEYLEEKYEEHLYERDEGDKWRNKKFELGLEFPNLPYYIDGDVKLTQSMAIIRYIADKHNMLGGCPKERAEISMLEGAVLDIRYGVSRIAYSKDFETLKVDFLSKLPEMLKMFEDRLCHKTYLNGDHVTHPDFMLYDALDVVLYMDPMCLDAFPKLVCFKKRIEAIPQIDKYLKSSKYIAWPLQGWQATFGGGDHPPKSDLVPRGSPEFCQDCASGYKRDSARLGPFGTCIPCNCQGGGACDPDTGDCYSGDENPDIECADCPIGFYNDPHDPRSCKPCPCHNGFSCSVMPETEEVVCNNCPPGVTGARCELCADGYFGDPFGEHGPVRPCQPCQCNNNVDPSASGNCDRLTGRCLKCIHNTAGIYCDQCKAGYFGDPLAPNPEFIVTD
Method: Resulting reflection/refractive index data obtained from these analyses (at 200 nM, 500 nM, 200 nM, 50 nM, and 20 nM) are presented individually in FIGS. 19A-19C.

[3] = molecular target: T2, GST-γ2III-7 (a.a. residues 461-653); test: direct ELISA, fusion proteins coated at 100 ng/well, A405 (Example 3, first experiment)
Method: as §1
ELISA plates were coated with 100 μl GST-γ2III chain fragments at concentration of 1 μg/ml in 0.1 M carbonate/bicarbonate buffer, pH 9, o/n at +4° C. (100 ng/well). The coated plates were washed three times with PBST. Non-specific binding was blocked with BSA-PBS incubation for 90 minutes (200 μl/well). Dilutions of reference standards, negative controls (quality controls), and sample were diluted in BSA-PBS and thereafter incubated for 1 h at room temperature. The plates were again washed three times with PBST. […] Absorbance was read with a microtitre plate reader at 405 nm after 30 min and after 60 min.

[4] = molecular target: T3, cyclic peptide X254 (Ln-5 residues …); test: direct ELISA on coated cyclic peptides
Method: (§3) The identity of these peptides was verified by mass spectrometry. Solutions containing the five peptides, in an unpurified state, were individually subjected to direct ELISA analysis using standard techniques. Briefly, NUNC-IMMUNO plates were coated with 100 μl/well of 50 μg/ml peptide in carbonate buffer and allowed to sit overnight at +4° C. […] The plates were washed five times with PBS to remove unbound peptide and subjected to one hour blocking at room temperature by exposure with a washing/blocking buffer (0.05% Tween-20 in PBS (PBST)), which was thereafter removed. 100 ng of antibody (100 μl of solution containing an antibody solution at a concentration of 1 μg antibody/ml) for each of the three mAbs (4G1, 5D5, and 6C12) was added to the test wells. Dilution buffer was added to the control wells. The plates were incubated at room temperature for one hour, and thereafter washed four times in PBST.
(§4) 100 μl HRP-anti-mouse secondary Ab diluted in a dilution buffer at a ratio of 1:2000 was added to each well and the plates were incubated for one hour at room temperature, and thereafter washed 4 times with PBST. The plates were then developed with 100 μl TMB substrate for a period of 15-30 minutes in the dark (during which time the plates were monitored for color development). At an appropriate time, the reaction was stopped in each well with the addition of 4M H3PO4. Absorbance measurements were taken at 450 nm and 620 nm, ratios of absorbance determined, and the data evaluated. These experiments were performed in triplicate.

[5] = molecular target: T4, cyclic peptide X253 (Ln-5 residues …); test: direct ELISA on coated cyclic peptides
Method: as §3, §4

[6] = molecular target: T5, cyclic peptide X256 (Ln-5 residues …); test: direct ELISA on coated cyclic peptides
Method: as §3, §4

[7] = molecular target: T6, cyclic peptide X255 (R+, Ln-5 residues …); test: direct ELISA on coated cyclic peptides
Method: as §3, §4

[8] = molecular target: T7, GST-γ2III-20 (a.a. residues 461-534); test: direct ELISA, fusion proteins coated at 100 ng/well, A405 (Example 3, second experiment)
Method: as §1, §2

Row | binding result (BSA) | binding result [1] | Kd [2] [nM] | koff [2] [s⁻¹] | kon [2] [M⁻¹ s⁻¹] | binding result [3] | binding result [4] | binding result [5] | binding result [6] | binding result [7] | binding result [8] | Binder
1 | no binding | no binding (tested: 1 µg/ml) | 23.3 | 0.000387 | 16600 |  |  |  |  |  |  | mAb 6C12 (antibody, V domains shown, Murine anti-γ2 DIII monoclonal antibody from hybridoma 6C12, deposited at DSMZ as DSM ACC2653; Biotinylated in some ELISAs; also called monoclonal antibody 6C12; DSM ACC2653) VH: DVHLQESGPGLVKPSQSLSLTCTVTGYSITSDYAWNWIRQFPGNRLEWMGYITYSGGTNYNPSLKSRISFTRDTSKNQFFLQLNSVTTEDTATYYCANNFYGNFFDYWGQGTTLTVSS VL: QIVLTQSPAIMSASPGEKVTMTCSASSSVSYIHWYQQKSGTSPKRWIYDTSKLASGVPARFSGSGSGTSYSLTISSMQAEDAATYYCQQWSSSPPTFGGGTKLEIK
2 | no binding |  | 11.4 | 0.000106 | 9280 | no binding | no binding | no binding | no binding | no binding | no binding | mAb 4G1 (antibody, V domains shown, Murine anti-γ2 DIII monoclonal antibody from hybridoma 4G1 (available from DAKO Cytomation); Biotinylated in some ELISAs; also called monoclonal antibody 4G1; γ2 DIII mAb 4G1) VH: EVKLEESGGGLVQPGGSMKLSCVASGFTFSNFWMNWVRQSPEKGLEWVAEIRLKSNNYATHYAESLKGRFTISRDDSKSNVYLQMNNLRPEDTGIYYCTRDYYGSSFAYWGQGTLVTVSA VL: DIVMTQAAFSNPVTLGTSASISCRSSKSLLHNIGITYLFWYLQKPGQSPQLLIYQMSKLASGVPDRFSGSGSGTDFTLRISRVEAEDVGIYYCAQNLELPPTFGSGTKLEIK
